# Measured values published in US20080020405A1, “Protein binding determination and manipulation” (priority 2002, published 2008).
# Biological target: T1, WT SCCE (Stratum Corneum Chymotryptic Enzyme) (Homo sapiens, UniProt P49862)
# T1 construct: made in house; host or cells: High 5 insect cells, transient transfection with pIE1-153A V4+ plasmid, protein secreted into the medium, Ni-NTA purified
# Experiment: Panning of the 6mer tandem phage peptide display library against WT SCCE, four rounds, clones sequenced
# Type: binding
# Details: for Hypervarible Domain, DNA sequence of clone, 6 mer Lib Panning Round 4 SCCE WT / Hypervarible Domain, peptide sequence of clone, 6 mer Lib Panning Round 4 SCCE WT: 6mer library, panning round 4 against SCCE WT; for Hypervarible Domain, DNA sequence of clone, 6 mer Lib Panning Round 4 SCCE WT: flanking TGC (Cys) codons; for Hypervarible Domain, peptide sequence of clone, 6 mer Lib Panning Round 4 SCCE WT: translated hexapeptide
# Method: Packaging of Phagemids from Cells • 1. Re-suspend the complete lawns of the E. coli cells in 20 ml of LB/Amp/Tc medium and use 2 ml for inoculation of 50 ml LB/Amp/Tc medium (250 ml Erlenmeyer flask). • 1. Incubate at 180 rpm and 37° C. for 1 hour, add […] of M13K07 stock solution (10^11-10^12 cfu/ml) and incubate for 15 minutes at 37° C. without shaking. • 2. Allow the culture to shake at 37° C. for 45 min, then add Kanamycin (final concentration of 50 μg/ml) and continue the incubation at 37° C. @ 180 rpm overnight. • 3. The next day, centrifuge for 15 minutes at 8,000 rpm and 4° C. (GS3 rotor, Sorvall RC5C). • 4. Transfer the supernatant into a new centrifuge bottle and centrifuge again. • 5. Transfer the supernatant again, add 0.15 vol of PEG/NaCl solution, mix and incubate on ice for at least 2 hours. • 6. Centrifuge for 40 minutes at 8,000 rpm (GS3 rotor) • 7. Decant the supernatant, repeat the centrifugation for 1 minute at 4,000 rpm and remove last traces of supernatant using a pipet. • 8. Re-suspend each PEG-pellet in 1.0 ml PBS solution and collect the re-suspended phages in one SS34 centrifuge bottle • 9. To clear the suspension, centrifuge again for 10 minutes at 12,000 rpm (SS34 rotor). • 10. Recover the supernatant (pipet), add NaN3 to a final concentration of 0.02% and store the library at 4° C. Determination of Phagemid (Library) Titer (Colony Forming Units [CFU] Assay) • 1. Inoculate 20 ml of LB/Tc (20 μg/ml) medium with 200 μl of an E. coli WK6λmutS overnight culture (37° C.; LB/Tc) and incubate at 37° C. and 180 rpm for 2 to 3 hours (OD600=0.5) • 2. Fill 12 wells of a sterile 96-well culture dish with 90 μl of autoclaved water and prepare dilution series by transferring 10 μl aliquots of the library stock (dilutions 10^−1 to 10^−12). • 3. Add 100 μl of logarithmic growing cells, mix and incubate for 30 min at 37° C. • 4. Spot 20 μl portions of each well on LB/Amp/Tc agar plates and incubate over night at 37° C. • 5. As a control use 20 μl of non-infected log-phase cells spotted on LB/Amp/Tc and LB/Tc agar plates. • 6. Count the number of colonies on the next day and determine the titer. Panning Protein Targets • WT SCCE is the Stratum Corneum Chymotryptic Enzyme subdloned in the pIE vector and adapted with a carboxy-terminal polyglycine linker and polyhistidine sequence to facilitate purification and immobilization (see WT SCCE preparation below). The adaptations were performed using a QuickChange mutagenesis kit. The sequence is listed in document SCCE His6 pIE.doc. • Fyn SCCE is the Stratum Corneum Chymotryptic Enzyme adapted with a polyglycine liker, the Fyn SH3 domain and additional polyglycine linker and a polyhistidine sequence (see Fyn SCCE preparation below). The final sequence is listed in document SCCE FYN His6 pIE.doc. The modifications to create Fyn SCCE were performed using WT SCCE as a template using a QuickChange mutagenesis kit. • The expression and purification of WT SCCE and Fyn SCCE are presented in document SCCE production.doc Pre-Adsorption of Library with Matrix to Remove Non-Specific Binding • 1. Take 25 μl Ni-NTA Magnetic Agarose Beads (Qiagen) in a 1.5 ml tube (siliconized), labeled pre-adsorption library. • 2. Place in Magnet and remove Sup. • 3. Wash 2 times (2 min each time) with 500 μl Ni-NTA Binding Buffer (50 mM NaH2PO4 pH8.0, 300 mM NaCl, 10 mM Imidazole) to equilibrate beads to Immidizole. • 4. Add 200 μl TBS-T 0.1% BSA+200 μl (10^12 phage) of 6mer library to tube labeled pre-adsorption library (to remove phage that stick non-specifically to the beads). • 5. Incubate @ room temperature for 1 h w/rotation. Coating Matrix with Target Protein • 6. Take 25 μl Ni-NTA Magnetic Agarose Beads (Qiagen) in 2 separate 1.5 ml Ep tubes (siliconized), labeled SSCE-WT and SCCE-FYN. • 7. Place in Magnet and remove Sup. • 8. Wash 2 times (2 min each time) with (500 μl) Ni-NTA Binding Buffer (50 mM NaH2PO4 pH8.0, 300 mM NaCl, 10 mM Imidazole) to equilibrate beads to Immidizole. • 9. […]
# T1 sequence (P49862 30-253): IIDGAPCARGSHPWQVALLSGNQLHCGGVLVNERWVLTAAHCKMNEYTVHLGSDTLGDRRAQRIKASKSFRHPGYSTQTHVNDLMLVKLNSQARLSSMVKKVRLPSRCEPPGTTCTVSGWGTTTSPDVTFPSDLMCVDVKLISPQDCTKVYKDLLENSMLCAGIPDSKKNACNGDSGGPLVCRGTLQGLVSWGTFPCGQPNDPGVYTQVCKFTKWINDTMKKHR
Substance,"Hypervarible Domain, DNA sequence of clone, 6 mer Lib Panning Round 4 SCCE WT","Hypervarible Domain, peptide sequence of clone, 6 mer Lib Panning Round 4 SCCE WT",Clone sequence also found in the other panning (remark) (panning round 4 SCCE WT)
041307_3 (QPHTWK; printed: Gln Pro His Thr Trp Lys),TGCCAGCCGCATACGTGGAAGTGC,Gln Pro His Thr Trp Lys,(Also in SCCE FYN)
041307_4 (TAAVDQ; printed: Thr Ala Ala Val Asp Gln),TGCACGGCTGCGGTGGATCAGTGC,Thr Ala Ala Val Asp Gln,
041307_5 (KQNSEA; printed: Lys Gln Asn Ser Glu Ala),TGCAAGCAGAATAGTGAGGCGTGC,Lys Gln Asn Ser Glu Ala,
041307_7 (PVAETP; printed: Pro Val Ala Glu Thr Pro),TGCCCTGTGGCGGAGACGCCTTGC,Pro Val Ala Glu Thr Pro,
041307_8 (TPNSAI; printed: Thr Pro Asn Ser Ala Ile),TGCACGCCTAATTCTGCGATTTGC,Thr Pro Asn Ser Ala Ile,
041307_10 (SHVRRN; printed: Ser His Val Arg Arg Asn),TGCAGTCATGTTAGGCGTAATTGC,Ser His Val Arg Arg Asn,
041307_11 (HHGLIV; printed: His His Gly Leu Ile Val),TGCCATCATGGGCTTATTGTGTGC,His His Gly Leu Ile Val,
041307_12 (YAKTMR; printed: Tyr Ala Lys Thr Met Arg),TGCTATGCGAAGACGATGCGGTGC,Tyr Ala Lys Thr Met Arg,
041307_17 (HHGLIV; printed: His His Gly Leu Ile Val),TGCCATCATGGGCTTATTGTGTGC,His His Gly Leu Ile Val,
041307_18 (HHGLIV; printed: His His Gly Leu Ile Val),TGCCATCATGGGCTTATTGTGTGC,His His Gly Leu Ile Val,
041307_19 (HHGLIV; printed: His His Gly Leu Ile Val),TGCCATCATGGGCTTATTGTGTGC,His His Gly Leu Ile Val,
041307_22 (HHGLIV; printed: His His Gly Leu Ile Val),TGCCATCATGGGCTTATTGTGTGC,His His Gly Leu Ile Val,
041307_25 (TPKAKP; printed: Thr Pro Lys Ala Lys Pro),TGCACTCCTCTGGCGCTTCCTTGC,Thr Pro Lys Ala Lys Pro,
041307_27 (KKKKTK; printed: Lys Lys Lys Lys Thr Lys),TGCAAGAAGAAGAAGACGAAGTGC,Lys Lys Lys Lys Thr Lys,
041307_29 (HHGLIV; printed: His His Gly Leu Ile Val),TGCCATCATGGGCTTATTGTGTGC,His His Gly Leu Ile Val,
041307_30 (PNNKIR; printed: Pro Asn Asn Lys Ile Arg),TGCCCGAATAATAAGATTAGGTGC,Pro Asn Asn Lys Ile Arg,
041307_31 (TSTRPP; printed: Thr Ser Thr Arg Pro Pro),TGCACTTCTACTAGGCCTCCTTGC,Thr Ser Thr Arg Pro Pro,
041307_32 (HMNMYI; printed: His Met Asn Met Tyr Ile),TGCCATATGAATATGTATATTTGC,His Met Asn Met Tyr Ile,
041307_35 (TGAGRS; printed: Thr Gly Ala Gly Arg Ser),TGCACGGGGGCGGGGCGGTCGTGC,Thr Gly Ala Gly Arg Ser,
